Results: US20240209076A1 (KODIAK SCIENCES, published 2024)
Positions count from the first letter of the chain named. Names may count otherwise. Values belong to the binder of their own block, whether it stands above or below them.

Columns and labels:
recombinant human IL-6 [1] = target: T1, recombinant human IL-6 (human, UniProt P05231 30-212); assay: SPR Biacore, purified Ab on Protein A chip, IL-6 analyte, 37 C
T1 construct: Bought protein
Description: (§1) Antibodies were captured on a Protein A chip (GE) by injecting 1:20 dilution of cell supernatant at 10 μL/min for 60 seconds. […] The sensor chip was regenerated by a 60 seconds injection of 10 mM Glycine pH 1.7 at flow rate of 50 μL/min. […] For this setup, 1 μg/mL of purified antibody was injected over a Protein A chip at 10 μL/min for 25-28 seconds. Data analysis for supernatant and purified samples were performed using BIAevaluation software (GE). All sensorgrams were double reference subtracted and fit using a 1:1 Langmuir binding model.

recombinant human IL-6 [2] = target: T1, recombinant human IL-6; assay: SPR Biacore, supernatant Ab on Protein A chip, IL-6 analyte, 25 C
Description: as §1

recombinant human IL-6 [3] = target: T1, recombinant human IL-6; assay: SPR Biacore, purified dual inhibitor on Protein A chip, IL-6 analyte, 37 C
recombinant human IL-6 [4] = target: T1, recombinant human IL-6; assay: SPR Biacore, supernatant dual inhibitor on Protein A chip, IL-6 analyte, 25 C

T1 sequence (P05231 30-212 limits assumed): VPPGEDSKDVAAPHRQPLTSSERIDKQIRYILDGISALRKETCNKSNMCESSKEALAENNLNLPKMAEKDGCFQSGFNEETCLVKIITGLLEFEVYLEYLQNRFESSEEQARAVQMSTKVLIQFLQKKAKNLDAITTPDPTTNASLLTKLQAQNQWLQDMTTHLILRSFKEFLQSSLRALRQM

Kd (recombinant human IL-6 [3]): 0.365 nM
koff (recombinant human IL-6 [3]): 0.000447 s⁻¹
kon (recombinant human IL-6 [3]): 1.23e+06 M⁻¹ s⁻¹
Kd (recombinant human IL-6 [4]): 0.253 nM
koff (recombinant human IL-6 [4]): 0.000109 s⁻¹
kon (recombinant human IL-6 [4]): 433000 M⁻¹ s⁻¹
B7: dual inhibitor molecule D (VEGF Trap-AntiIL-6) (other)
heavy: SDTGRPFVEMYSEIPEIIHMTEGRELVIPCRVTSPNITVTLKKFPLDTLIPDGKRIIWDSRKGFIISNATYKEIGLLTCEATVNGHLYKTNYLTHRQTNTIIDVVLSPSHGIELSVGEKLVLNCTARTELNVGIDFNWEYPSSKHQHKKLVNRDLKTQSGSEMKKFLSTLTIDGVTRSDQGLYTCAASSGLMTKKNSTFVRVHEKGGGGSGGGGSEVQLVESGGGLVQPGGSLRLSCAASGFTFSPFAWSWVRQAPGKGLEWVAKISPGGSWTYYSDTVTDRFTFSLDTSKSTAYLQMNSLRAEDTAVYYCARQLWGYYALDVWGQGTLVTVSSASTKGPSVFPLAPSSKSTSGGTAALGCLVKDYFPEPVTVSWNSGALTSGVHTFPAVLQSSGLYSLSSVVTVPSSSLGTQTYICNVNHKPSNTKVDKKVEPKSCDKTHTCPPCPAPEAAGAPSVFLFPPKPKDTLMISRTPEVTCVVVDVSHEDPEVKFNWYVDGVEVHNAKTKPREEQYNSTYRVVSVLTVLHQDWLNGKEYKCKVSNKALPAPIEKTISKAKGQPREPQVYTLPPSREEMTKNQVSLTCLVKGFYPSDIAVEWESNGQPENNYKTTPPVLDSDGSFFLYSKLTVDKSRWQQGNVFSCSVMHEALHNHYTQKSLSCSPGK
light: DIQLTQSPSSLSASVGDRVTITCSASISVSYLYWYQQKPGKAPKLLIYDDSSLASGVPSRFSGSGSGTDFTLTISSLQPEDFATYYCQQWSGYPYTFGQGTKVEIKRTVAAPSVFIFPPSDEQLKSGTASVVCLLNNFYPREAKVQWKVDNALQSGNSQESVTEQDSKDSTYSLSSTLTLSKADYEKHKVYACEVTHQGLSSPVTKSFNRGEC
notes: Trap-antibody fusion, VEGF trap at the N-terminus of the anti-IL-6 heavy chain (VH variant II); light chain variant III

Kd (recombinant human IL-6 [3]): 0.424 nM
koff (recombinant human IL-6 [3]): 0.000459 s⁻¹
kon (recombinant human IL-6 [3]): 1.08e+06 M⁻¹ s⁻¹
Kd (recombinant human IL-6 [4]): 0.299 nM
koff (recombinant human IL-6 [4]): 0.000151 s⁻¹
kon (recombinant human IL-6 [4]): 504000 M⁻¹ s⁻¹
B9: dual inhibitor molecule E (VEGF Trap-AntiIL-6) (other)
heavy: B7 heavy
light: B7 light with D50A
notes: Trap-antibody fusion, VEGF trap at the N-terminus of the anti-IL-6 heavy chain (VH variant II); light chain variant IV

Kd (recombinant human IL-6 [3]): 0.34 nM
koff (recombinant human IL-6 [3]): 0.000446 s⁻¹
kon (recombinant human IL-6 [3]): 1.31e+06 M⁻¹ s⁻¹
Kd (recombinant human IL-6 [4]): 0.225 nM
koff (recombinant human IL-6 [4]): 0.000137 s⁻¹
kon (recombinant human IL-6 [4]): 611000 M⁻¹ s⁻¹
B10: dual inhibitor molecule F (VEGF Trap-AntiIL-6) (other)
heavy: B7 heavy
light: B7 light with S52N
notes: Trap-antibody fusion, VEGF trap at the N-terminus of the anti-IL-6 heavy chain (VH variant II); light chain variant V

Kd (recombinant human IL-6 [3]): 0.396 nM
koff (recombinant human IL-6 [3]): 0.000529 s⁻¹
kon (recombinant human IL-6 [3]): 1.34e+06 M⁻¹ s⁻¹
Kd (recombinant human IL-6 [4]): 0.356 nM
koff (recombinant human IL-6 [4]): 0.000162 s⁻¹
kon (recombinant human IL-6 [4]): 454000 M⁻¹ s⁻¹
B11: dual inhibitor molecule H (AntiIL-6-VEGF Trap) (other)
heavy: EVQLVESGGGLVQPGGSLRLSCAASGFTFSPFAISWVRQAPGKGLEWVAKISPGGSWTYYSDTVTDRFTFSLDTSKSTAYLQMNSLRAEDTAVYYCARQLWGYYALDVWGQGTLVTVSSASTKGPSVFPLAPSSKSTSGGTAALGCLVKDYFPEPVTVSWNSGALTSGVHTFPAVLQSSGLYSLSSVVTVPSSSLGTQTYICNVNHKPSNTKVDKKVEPKSCGGGGSGGGGSSDTGRPFVEMYSEIPEIIHMTEGRELVIPCRVTSPNITVTLKKFPLDTLIPDGKRIIWDSRKGFIISNATYKEIGLLTCEATVNGHLYKTNYLTHRQTNTIIDVVLSPSHGIELSVGEKLVLNCTARTELNVGIDFNWEYPSSKHQHKKLVNRDLKTQSGSEMKKFLSTLTIDGVTRSDQGLYTCAASSGLMTKKNSTFVRVHEKDKTHTCPPCPAPEAAGAPSVFLFPPKPKDTLMISRTPEVTCVVVDVSHEDPEVKFNWYVDGVEVHNAKTKPREEQYNSTYRVVSVLTVLHQDWLNGKEYKCKVSNKALPAPIEKTISKAKGQPREPQVYTLPPSREEMTKNQVSLTCLVKGFYPSDIAVEWESNGQPENNYKTTPPVLDSDGSFFLYSKLTVDKSRWQQGNVFSCSVMHEALHNHYTQKSLSCSPGK
light: B7 light with D50A
notes: Trap-antibody fusion, VEGF trap between the Fab region (VH variant I) and the Fc; light chain variant IV

Further lines, the binder ahead of its results:

B1: anti-IL-6 antibody, light chain D49E (heavy chain WT) (antibody, V domains shown)
VH: EVQLVESGGGLVQPGGSLRLSCAASGFTFSPFAMSWVRQAPGKGLEWVAKISPGGSWTYYSDTVTGRFTFSLDTSKSTAYLQMNSLRAEDTAVYYCARQLWGYYALDIWGQGTLVTVSS
VL: DIQLTQSPSSLSASVGDRVTITCSASISVSYMYWYQQKPGKAPKLLIYEMSNLASGVPSRFSGSGSGTDFTLTISSLQPEDFATYYCMQWSGYPYTFGQGTKVEIK
notes: See note of m2; also called WT / D49E
Kd (recombinant human IL-6 [1]): 0.624 nM
koff (recombinant human IL-6 [1]): 0.000417 s⁻¹
kon (recombinant human IL-6 [1]): 668000 M⁻¹ s⁻¹
Kd (recombinant human IL-6 [2]): 0.241 nM
koff (recombinant human IL-6 [2]): 0.000111 s⁻¹
kon (recombinant human IL-6 [2]): 459000 M⁻¹ s⁻¹

B2: anti-IL-6 antibody, light chain T96V (heavy chain WT) (antibody, V domains shown)
VH: B1 VH
VL: B1 VL with E49D, T96V
notes: See note of m2; also called WT / T96V
Kd (recombinant human IL-6 [1]): 0.695 nM
koff (recombinant human IL-6 [1]): 0.000639 s⁻¹
kon (recombinant human IL-6 [1]): 921000 M⁻¹ s⁻¹
Kd (recombinant human IL-6 [2]): 0.423 nM
koff (recombinant human IL-6 [2]): 0.000192 s⁻¹
kon (recombinant human IL-6 [2]): 454000 M⁻¹ s⁻¹

B3: anti-IL-6 antibody, light chain M32V (heavy chain WT) (antibody, V domains shown)
VH: B1 VH
VL: B1 VL with M32V, E49D
notes: See note of m2; also called WT / M32V
Kd (recombinant human IL-6 [1]): 0.429 nM
koff (recombinant human IL-6 [1]): 0.000369 s⁻¹
kon (recombinant human IL-6 [1]): 861000 M⁻¹ s⁻¹
Kd (recombinant human IL-6 [2]): 0.23 nM
koff (recombinant human IL-6 [2]): 0.000116 s⁻¹
kon (recombinant human IL-6 [2]): 505000 M⁻¹ s⁻¹

B4: dual inhibitor molecule A (VEGF Trap-AntiIL-6) (other)
heavy: B7 heavy with W249I
light: B7 light
Kd (recombinant human IL-6 [3]): 0.484 nM
koff (recombinant human IL-6 [3]): 0.000538 s⁻¹
kon (recombinant human IL-6 [3]): 1.11e+06 M⁻¹ s⁻¹
Kd (recombinant human IL-6 [4]): 0.589 nM
koff (recombinant human IL-6 [4]): 0.000182 s⁻¹
kon (recombinant human IL-6 [4]): 309000 M⁻¹ s⁻¹

B5: dual inhibitor molecule G (AntiIL-6-VEGF Trap) (other)
heavy: B11 heavy
light: B7 light
notes: Trap-antibody fusion, VEGF trap between the Fab region (VH variant I) and the Fc; light chain variant III
Kd (recombinant human IL-6 [3]): 0.451 nM
koff (recombinant human IL-6 [3]): 0.000567 s⁻¹
kon (recombinant human IL-6 [3]): 1.26e+06 M⁻¹ s⁻¹
Kd (recombinant human IL-6 [4]): 0.589 nM
koff (recombinant human IL-6 [4]): 0.000149 s⁻¹
kon (recombinant human IL-6 [4]): 252000 M⁻¹ s⁻¹

B6: dual inhibitor molecule B (VEGF Trap-AntiIL-6) (other)
heavy: B7 heavy with W249I
light: B7 light with D50A
notes: Trap-antibody fusion, VEGF trap at the N-terminus of the anti-IL-6 heavy chain (VH variant I); light chain variant IV
Kd (recombinant human IL-6 [3]): 0.507 nM
koff (recombinant human IL-6 [3]): 0.000536 s⁻¹
kon (recombinant human IL-6 [3]): 1.06e+06 M⁻¹ s⁻¹
Kd (recombinant human IL-6 [4]): 0.305 nM
koff (recombinant human IL-6 [4]): 0.000185 s⁻¹
kon (recombinant human IL-6 [4]): 605000 M⁻¹ s⁻¹

B8: dual inhibitor molecule C (VEGF Trap-AntiIL-6) (other)
heavy: B7 heavy with W249I
light: B7 light with S52N
notes: Trap-antibody fusion, VEGF trap at the N-terminus of the anti-IL-6 heavy chain (VH variant I); light chain variant V
Kd (recombinant human IL-6 [3]): 0.477 nM
koff (recombinant human IL-6 [3]): 0.000481 s⁻¹
kon (recombinant human IL-6 [3]): 1.01e+06 M⁻¹ s⁻¹
Kd (recombinant human IL-6 [4]): 0.394 nM
koff (recombinant human IL-6 [4]): 0.00015 s⁻¹
kon (recombinant human IL-6 [4]): 379000 M⁻¹ s⁻¹
